We go through eight molecules from patent US20140087995A1 (published 2014).

The IC50 is the concentration needed to halve the response being measured.

Numbered stars: 1 amine (or outer) side, 2 acyl side, 3 side chain; on linkers, the order of the positions; unused ones are H or OH. Bridge positions count the residues as written; N and C are the ends. Square brackets hold non-standard residues; d marks the D form. Side chains are listed from the residue outwards. Ends that are not written are not given here. * marks the point of attachment. C20 diacid = O=C(O)CCCCCCCCCCCCCCCCCCC(=O)*; γGlu = O=C(O)[C@H](CCC(=O)[*:2])N[*:1]

Sequences and labels used below:
B1: N^ε1-[(4S)-4-carboxy-4-(19-carboxynonadecanoylamino)butanoyl]-[Glu14,Arg17,Pro21,Pro27,Pro34,Pro37]-h-amylin (peptide)
peptide: K([γGlu-C20 diacid])CNTATCATQRLAEFLRHSSPNFGAIPSSTNVGPNTP-NH2
modifications: disulfide 2-7; N-terminus assumed
SMILES: CC[C@H](C)[C@H](NC(=O)[C@H](C)NC(=O)CNC(=O)[C@H](Cc1ccccc1)NC(=O)[C@H](CC(N)=O)NC(=O)[C@@H]1CCCN1C(=O)[C@H](CO)NC(=O)[C@H](CO)NC(=O)[C@H](Cc1c[nH]cn1)NC(=O)[C@H](CCCNC(=N)N)NC(=O)[C@H](CC(C)C)NC(=O)[C@H](Cc1ccccc1)NC(=O)[C@H](CCC(=O)O)NC(=O)[C@H](C)NC(=O)[C@H](CC(C)C)NC(=O)[C@H](CCCNC(=N)N)NC(=O)[C@H](CCC(N)=O)NC(=O)[C@@H](NC(=O)[C@H](C)NC(=O)[C@@H]1CSSC[C@H](NC(=O)[C@@H](N)CCCCNC(=O)CC[C@H](NC(=O)CCCCCCCCCCCCCCCCCCC(=O)O)C(=O)O)C(=O)N[C@@H](CC(N)=O)C(=O)N[C@@H]([C@@H](C)O)C(=O)N[C@@H](C)C(=O)N[C@@H]([C@@H](C)O)C(=O)N1)[C@@H](C)O)C(=O)N1CCC[C@H]1C(=O)N[C@@H](CO)C(=O)N[C@@H](CO)C(=O)N[C@H](C(=O)N[C@@H](CC(N)=O)C(=O)N[C@H](C(=O)NCC(=O)N1CCC[C@H]1C(=O)N[C@@H](CC(N)=O)C(=O)N[C@H](C(=O)N1CCC[C@H]1C(N)=O)[C@@H](C)O)C(C)C)[C@@H](C)O
B2: N^ε1-[(4S)-4-carboxy-4-[[(4S)-4-carboxy-4-(19-carboxynonadecanoylamino)butanoyl]amino]butanoyl]-[D-Asp14,Arg17,Pro21,Pro27,Arg35]-h-amylin (peptide)
peptide: K([γGlu-γGlu-C20 diacid])CNTATCATQRLA[dD]FLRHSSPNFGAIPSSTNVGSRTY-NH2
modifications: disulfide 2-7; N-terminus assumed
SMILES: CC[C@H](C)[C@H](NC(=O)[C@H](C)NC(=O)CNC(=O)[C@H](Cc1ccccc1)NC(=O)[C@H](CC(N)=O)NC(=O)[C@@H]1CCCN1C(=O)[C@H](CO)NC(=O)[C@H](CO)NC(=O)[C@H](Cc1c[nH]cn1)NC(=O)[C@H](CCCNC(=N)N)NC(=O)[C@H](CC(C)C)NC(=O)[C@H](Cc1ccccc1)NC(=O)[C@@H](CC(=O)O)NC(=O)[C@H](C)NC(=O)[C@H](CC(C)C)NC(=O)[C@H](CCCNC(=N)N)NC(=O)[C@H](CCC(N)=O)NC(=O)[C@@H](NC(=O)[C@H](C)NC(=O)[C@@H]1CSSC[C@H](NC(=O)[C@@H](N)CCCCNC(=O)CC[C@H](NC(=O)CC[C@H](NC(=O)CCCCCCCCCCCCCCCCCCC(=O)O)C(=O)O)C(=O)O)C(=O)N[C@@H](CC(N)=O)C(=O)N[C@@H]([C@@H](C)O)C(=O)N[C@@H](C)C(=O)N[C@@H]([C@@H](C)O)C(=O)N1)[C@@H](C)O)C(=O)N1CCC[C@H]1C(=O)N[C@@H](CO)C(=O)N[C@@H](CO)C(=O)N[C@H](C(=O)N[C@@H](CC(N)=O)C(=O)N[C@H](C(=O)NCC(=O)N[C@@H](CO)C(=O)N[C@@H](CCCNC(=N)N)C(=O)N[C@H](C(=O)N[C@@H](Cc1ccc(O)cc1)C(N)=O)[C@@H](C)O)C(C)C)[C@@H](C)O
B3: N^ε1-[(4S)-4-carboxy-4-[[(4S)-4-carboxy-4-(19-carboxynonadecanoylamino)butanoyl]amino]butanoyl]-[Glu14,Arg17,Pro21,Pro27,Pro34,Glu35,Pro37]-h-amylin (peptide)
peptide: K([γGlu-γGlu-C20 diacid])CNTATCATQRLAEFLRHSSPNFGAIPSSTNVGPETP-NH2
modifications: disulfide 2-7; N-terminus assumed
SMILES: CC[C@H](C)[C@H](NC(=O)[C@H](C)NC(=O)CNC(=O)[C@H](Cc1ccccc1)NC(=O)[C@H](CC(N)=O)NC(=O)[C@@H]1CCCN1C(=O)[C@H](CO)NC(=O)[C@H](CO)NC(=O)[C@H](Cc1c[nH]cn1)NC(=O)[C@H](CCCNC(=N)N)NC(=O)[C@H](CC(C)C)NC(=O)[C@H](Cc1ccccc1)NC(=O)[C@H](CCC(=O)O)NC(=O)[C@H](C)NC(=O)[C@H](CC(C)C)NC(=O)[C@H](CCCNC(=N)N)NC(=O)[C@H](CCC(N)=O)NC(=O)[C@@H](NC(=O)[C@H](C)NC(=O)[C@@H]1CSSC[C@H](NC(=O)[C@@H](N)CCCCNC(=O)CC[C@H](NC(=O)CC[C@H](NC(=O)CCCCCCCCCCCCCCCCCCC(=O)O)C(=O)O)C(=O)O)C(=O)N[C@@H](CC(N)=O)C(=O)N[C@@H]([C@@H](C)O)C(=O)N[C@@H](C)C(=O)N[C@@H]([C@@H](C)O)C(=O)N1)[C@@H](C)O)C(=O)N1CCC[C@H]1C(=O)N[C@@H](CO)C(=O)N[C@@H](CO)C(=O)N[C@H](C(=O)N[C@@H](CC(N)=O)C(=O)N[C@H](C(=O)NCC(=O)N1CCC[C@H]1C(=O)N[C@@H](CCC(=O)O)C(=O)N[C@H](C(=O)N1CCC[C@H]1C(N)=O)[C@@H](C)O)C(C)C)[C@@H](C)O
B4: N^ε1-[(4S)-4-carboxy-4-(19-carboxynonadecanoylamino)butanoyl]-[His14,Arg17,Pro21,Pro27,Pro34,Pro37]-h-amylin (peptide)
peptide: K([γGlu-C20 diacid])CNTATCATQRLAHFLRHSSPNFGAIPSSTNVGPNTP-NH2
modifications: disulfide 2-7; N-terminus assumed
SMILES: CC[C@H](C)[C@H](NC(=O)[C@H](C)NC(=O)CNC(=O)[C@H](Cc1ccccc1)NC(=O)[C@H](CC(N)=O)NC(=O)[C@@H]1CCCN1C(=O)[C@H](CO)NC(=O)[C@H](CO)NC(=O)[C@H](Cc1c[nH]cn1)NC(=O)[C@H](CCCNC(=N)N)NC(=O)[C@H](CC(C)C)NC(=O)[C@H](Cc1ccccc1)NC(=O)[C@H](Cc1c[nH]cn1)NC(=O)[C@H](C)NC(=O)[C@H](CC(C)C)NC(=O)[C@H](CCCNC(=N)N)NC(=O)[C@H](CCC(N)=O)NC(=O)[C@@H](NC(=O)[C@H](C)NC(=O)[C@@H]1CSSC[C@H](NC(=O)[C@@H](N)CCCCNC(=O)CC[C@H](NC(=O)CCCCCCCCCCCCCCCCCCC(=O)O)C(=O)O)C(=O)N[C@@H](CC(N)=O)C(=O)N[C@@H]([C@@H](C)O)C(=O)N[C@@H](C)C(=O)N[C@@H]([C@@H](C)O)C(=O)N1)[C@@H](C)O)C(=O)N1CCC[C@H]1C(=O)N[C@@H](CO)C(=O)N[C@@H](CO)C(=O)N[C@H](C(=O)N[C@@H](CC(N)=O)C(=O)N[C@H](C(=O)NCC(=O)N1CCC[C@H]1C(=O)N[C@@H](CC(N)=O)C(=O)N[C@H](C(=O)N1CCC[C@H]1C(N)=O)[C@@H](C)O)C(C)C)[C@@H](C)O
B5: N^ε1-[(4S)-4-carboxy-4-[[(4S)-4-carboxy-4-(19-carboxynonadecanoylamino)butanoyl]amino]butanoyl]-[Glu14,Arg17,Pro21,Pro27,Pro34,Phe37]-h-amylin (peptide)
peptide: K([γGlu-γGlu-C20 diacid])CNTATCATQRLAEFLRHSSPNFGAIPSSTNVGPNTF-NH2
modifications: disulfide 2-7; N-terminus assumed
SMILES: CC[C@H](C)[C@H](NC(=O)[C@H](C)NC(=O)CNC(=O)[C@H](Cc1ccccc1)NC(=O)[C@H](CC(N)=O)NC(=O)[C@@H]1CCCN1C(=O)[C@H](CO)NC(=O)[C@H](CO)NC(=O)[C@H](Cc1c[nH]cn1)NC(=O)[C@H](CCCNC(=N)N)NC(=O)[C@H](CC(C)C)NC(=O)[C@H](Cc1ccccc1)NC(=O)[C@H](CCC(=O)O)NC(=O)[C@H](C)NC(=O)[C@H](CC(C)C)NC(=O)[C@H](CCCNC(=N)N)NC(=O)[C@H](CCC(N)=O)NC(=O)[C@@H](NC(=O)[C@H](C)NC(=O)[C@@H]1CSSC[C@H](NC(=O)[C@@H](N)CCCCNC(=O)CC[C@H](NC(=O)CC[C@H](NC(=O)CCCCCCCCCCCCCCCCCCC(=O)O)C(=O)O)C(=O)O)C(=O)N[C@@H](CC(N)=O)C(=O)N[C@@H]([C@@H](C)O)C(=O)N[C@@H](C)C(=O)N[C@@H]([C@@H](C)O)C(=O)N1)[C@@H](C)O)C(=O)N1CCC[C@H]1C(=O)N[C@@H](CO)C(=O)N[C@@H](CO)C(=O)N[C@H](C(=O)N[C@@H](CC(N)=O)C(=O)N[C@H](C(=O)NCC(=O)N1CCC[C@H]1C(=O)N[C@@H](CC(N)=O)C(=O)N[C@H](C(=O)N[C@@H](Cc1ccccc1)C(N)=O)[C@@H](C)O)C(C)C)[C@@H](C)O
B6: N^-1-[(4S)-4-carboxy-4-(19-carboxynonadecanoylamino)butanoyl]-Gly[Arg1,Ala14,Arg17,Pro21,Pro27,His34]-h-amylin (peptide)
peptide: {C20 diacid-γGlu}-GRCNTATCATQRLAAFLRHSSPNFGAIPSSTNVGHNTY-NH2
modifications: disulfide 3-8
SMILES: CC[C@H](C)[C@H](NC(=O)[C@H](C)NC(=O)CNC(=O)[C@H](Cc1ccccc1)NC(=O)[C@H](CC(N)=O)NC(=O)[C@@H]1CCCN1C(=O)[C@H](CO)NC(=O)[C@H](CO)NC(=O)[C@H](Cc1c[nH]cn1)NC(=O)[C@H](CCCNC(=N)N)NC(=O)[C@H](CC(C)C)NC(=O)[C@H](Cc1ccccc1)NC(=O)[C@H](C)NC(=O)[C@H](C)NC(=O)[C@H](CC(C)C)NC(=O)[C@H](CCCNC(=N)N)NC(=O)[C@H](CCC(N)=O)NC(=O)[C@@H](NC(=O)[C@H](C)NC(=O)[C@@H]1CSSC[C@H](NC(=O)[C@H](CCCNC(=N)N)NC(=O)CNC(=O)CC[C@H](NC(=O)CCCCCCCCCCCCCCCCCCC(=O)O)C(=O)O)C(=O)N[C@@H](CC(N)=O)C(=O)N[C@@H]([C@@H](C)O)C(=O)N[C@@H](C)C(=O)N[C@@H]([C@@H](C)O)C(=O)N1)[C@@H](C)O)C(=O)N1CCC[C@H]1C(=O)N[C@@H](CO)C(=O)N[C@@H](CO)C(=O)N[C@H](C(=O)N[C@@H](CC(N)=O)C(=O)N[C@H](C(=O)NCC(=O)N[C@@H](Cc1c[nH]cn1)C(=O)N[C@@H](CC(N)=O)C(=O)N[C@H](C(=O)N[C@@H](Cc1ccc(O)cc1)C(N)=O)[C@@H](C)O)C(C)C)[C@@H](C)O

For this assay, the target named is T1, human amylin receptor (amylin 3(a) receptor: human calcitonin receptor co-expressed with RAMP-3) (human, UniProt P30988 25-474; O60896 24-148, limits assumed).
T1 construct: whole, on cells; Used as cell membranes prepared from the Amylin 3(a)/CRE-luc BHK cells (Assay V); also called hAmylin-R; hAmylinR
T1 sequence (looked up) 1: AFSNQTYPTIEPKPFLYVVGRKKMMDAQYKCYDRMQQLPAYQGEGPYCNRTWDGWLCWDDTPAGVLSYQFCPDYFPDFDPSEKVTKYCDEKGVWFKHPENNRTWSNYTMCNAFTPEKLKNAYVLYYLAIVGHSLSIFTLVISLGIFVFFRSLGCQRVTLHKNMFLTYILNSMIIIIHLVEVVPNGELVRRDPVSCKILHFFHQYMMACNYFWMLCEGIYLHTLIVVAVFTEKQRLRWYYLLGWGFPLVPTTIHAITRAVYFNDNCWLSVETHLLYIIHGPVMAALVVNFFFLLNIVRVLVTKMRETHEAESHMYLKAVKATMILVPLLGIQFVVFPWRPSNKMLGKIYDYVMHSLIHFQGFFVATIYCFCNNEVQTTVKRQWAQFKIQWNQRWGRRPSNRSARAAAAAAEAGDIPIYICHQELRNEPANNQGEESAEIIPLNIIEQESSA
T1 sequence (looked up) 2: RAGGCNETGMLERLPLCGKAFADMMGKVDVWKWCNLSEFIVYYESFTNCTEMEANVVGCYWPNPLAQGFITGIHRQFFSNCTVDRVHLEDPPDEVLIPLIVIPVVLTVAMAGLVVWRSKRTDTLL
The assay is described as follows: SPA displacement of 125I-rat amylin, hAmylin 3(a) receptor membranes. In a few lines:
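Cell membranes were prepared by homogenisation in Na-HEPES/EDTA buffer, pH 7.4, and stored at −80° C. They were then coupled to SPA beads at 35 ng/μL final and exposed to compounds in assay buffer containing CaCl2, MgCl₂, OA and Tween20. After 120 min at 25° C, plates were counted and IC₅₀ derived.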
(In general: In a radioligand displacement assay an active substance lowers the binding of a labelled ligand.)
For B1, the IC50 came out at 0.214 nM. Regarding B2, the IC50 worked out at 0.365 nM.

For the molecule K([γGlu-γGlu-C20 diacid])CNTATCATQRLAEFLRHSSPNFGAIPSSTNVGPHTY-NH2 (disulfide 2-7 (inferred)), the IC50 was found to be 0.377 nM. As to B3, the IC50 is 0.533 nM. With K([γGlu-γGlu-C20 diacid])CNTATCATQRLADFLRHSSPNFGAIPSSTNVGPRTY-NH2 (disulfide 2-7, also called compound 130), the concentration for half-maximal inhibition (IC50) turned out to be 0.453 nM. The figure for B4 is 0.131 nM. The figure for B5 is 0.152 nM; for B6 it is 0.426 nM.
